Test results from paper PMC7159904.

Target: Dispatched-yellow fluorescent protein (YFP) (D. melanogaster) (UniProt Q9VNJ5)
Assay: MST

Chain of UniProt Q9VNJ5 (Q9VNJ5 whole entry): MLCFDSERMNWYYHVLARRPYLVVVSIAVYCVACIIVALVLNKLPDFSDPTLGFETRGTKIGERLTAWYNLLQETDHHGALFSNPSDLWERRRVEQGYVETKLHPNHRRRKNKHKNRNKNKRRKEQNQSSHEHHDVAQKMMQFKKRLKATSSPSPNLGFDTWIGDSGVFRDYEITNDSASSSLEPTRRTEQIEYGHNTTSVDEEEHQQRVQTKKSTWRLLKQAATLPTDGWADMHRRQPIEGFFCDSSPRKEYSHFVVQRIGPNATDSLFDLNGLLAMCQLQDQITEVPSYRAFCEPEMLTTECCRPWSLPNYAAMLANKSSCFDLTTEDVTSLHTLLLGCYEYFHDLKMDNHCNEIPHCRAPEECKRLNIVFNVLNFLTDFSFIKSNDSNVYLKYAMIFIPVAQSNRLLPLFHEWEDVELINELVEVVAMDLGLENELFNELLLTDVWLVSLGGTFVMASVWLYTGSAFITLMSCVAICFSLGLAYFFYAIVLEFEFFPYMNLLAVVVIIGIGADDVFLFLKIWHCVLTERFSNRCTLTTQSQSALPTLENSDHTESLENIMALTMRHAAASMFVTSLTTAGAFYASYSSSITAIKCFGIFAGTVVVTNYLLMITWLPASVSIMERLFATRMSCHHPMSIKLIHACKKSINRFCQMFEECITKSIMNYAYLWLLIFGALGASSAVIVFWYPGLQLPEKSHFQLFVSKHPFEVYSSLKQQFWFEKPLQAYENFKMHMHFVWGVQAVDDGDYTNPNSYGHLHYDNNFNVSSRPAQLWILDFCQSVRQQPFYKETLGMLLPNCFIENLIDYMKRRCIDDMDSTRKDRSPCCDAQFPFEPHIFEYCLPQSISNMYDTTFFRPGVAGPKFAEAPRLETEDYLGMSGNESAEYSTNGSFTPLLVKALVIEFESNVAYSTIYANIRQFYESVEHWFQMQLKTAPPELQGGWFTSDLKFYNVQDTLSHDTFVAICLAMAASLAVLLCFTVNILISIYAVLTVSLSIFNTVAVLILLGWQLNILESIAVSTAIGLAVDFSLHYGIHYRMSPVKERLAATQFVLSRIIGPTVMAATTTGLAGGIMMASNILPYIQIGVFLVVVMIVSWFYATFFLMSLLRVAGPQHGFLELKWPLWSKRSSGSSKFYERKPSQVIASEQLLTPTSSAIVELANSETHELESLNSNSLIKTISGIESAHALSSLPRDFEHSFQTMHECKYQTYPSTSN

Kd: 6.2 µM
Substance: modified D. melanogaster hedgehog N-terminal fragment HhN_(C85II) (from UniProt Q02936 85-257) (ligand)
